This assay addresses thermostable exoshell tES(+)F116H. Kind of assay: AUC.

For the substance “horseradish peroxidase (from UniProt P00433 31-338) (enzyme)”, the stoichiometry N (HRP molecules per tES shell) is 2.

Values taken from publication PMC9333347.
